According to patent US20140079713A1:

Target: PTCH1-GFP (mouse) (UniProt Q61115)
Assay: cell surface binding of BOC-Fc proteins to COS7 cells expressing PTCH1-GFP, anti-Fc HRP

Chain of UniProt Q61115 (Q61115 whole entry): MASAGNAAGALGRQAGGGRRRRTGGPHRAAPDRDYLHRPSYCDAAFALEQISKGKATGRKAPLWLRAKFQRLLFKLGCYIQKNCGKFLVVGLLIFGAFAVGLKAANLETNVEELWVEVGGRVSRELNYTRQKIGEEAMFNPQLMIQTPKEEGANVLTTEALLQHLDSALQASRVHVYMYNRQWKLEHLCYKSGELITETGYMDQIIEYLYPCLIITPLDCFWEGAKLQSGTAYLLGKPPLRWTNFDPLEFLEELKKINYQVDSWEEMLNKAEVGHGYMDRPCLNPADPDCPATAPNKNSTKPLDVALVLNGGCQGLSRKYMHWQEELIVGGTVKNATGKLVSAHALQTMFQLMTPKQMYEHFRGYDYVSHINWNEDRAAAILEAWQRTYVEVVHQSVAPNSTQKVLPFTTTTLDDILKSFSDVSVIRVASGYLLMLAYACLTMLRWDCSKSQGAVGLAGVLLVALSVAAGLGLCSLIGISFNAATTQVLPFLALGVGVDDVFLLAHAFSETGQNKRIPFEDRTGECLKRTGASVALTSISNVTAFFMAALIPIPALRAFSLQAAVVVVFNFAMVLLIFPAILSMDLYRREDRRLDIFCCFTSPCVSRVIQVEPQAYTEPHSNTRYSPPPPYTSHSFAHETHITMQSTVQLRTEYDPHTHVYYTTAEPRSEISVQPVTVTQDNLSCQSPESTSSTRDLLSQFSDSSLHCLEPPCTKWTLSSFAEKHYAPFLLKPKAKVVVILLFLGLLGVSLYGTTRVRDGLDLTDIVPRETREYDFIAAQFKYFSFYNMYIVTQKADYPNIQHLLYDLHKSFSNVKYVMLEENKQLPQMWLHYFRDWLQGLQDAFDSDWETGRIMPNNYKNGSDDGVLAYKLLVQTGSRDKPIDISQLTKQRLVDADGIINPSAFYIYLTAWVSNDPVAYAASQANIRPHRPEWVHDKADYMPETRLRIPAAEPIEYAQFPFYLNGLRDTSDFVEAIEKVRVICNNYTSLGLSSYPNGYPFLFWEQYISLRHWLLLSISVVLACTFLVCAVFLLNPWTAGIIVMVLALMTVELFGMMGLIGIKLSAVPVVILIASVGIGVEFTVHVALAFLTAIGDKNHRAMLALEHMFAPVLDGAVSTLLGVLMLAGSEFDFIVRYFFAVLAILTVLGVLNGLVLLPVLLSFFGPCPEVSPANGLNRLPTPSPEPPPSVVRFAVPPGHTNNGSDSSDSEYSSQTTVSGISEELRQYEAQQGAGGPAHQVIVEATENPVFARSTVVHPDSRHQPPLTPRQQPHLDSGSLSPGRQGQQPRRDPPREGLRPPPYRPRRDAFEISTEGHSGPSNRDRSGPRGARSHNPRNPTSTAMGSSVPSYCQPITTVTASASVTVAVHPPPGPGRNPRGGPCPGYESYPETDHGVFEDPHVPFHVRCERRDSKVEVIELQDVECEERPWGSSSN

binding level relative to BOC ecto-Fc [%]	Substance
60	BOC-Fc construct containing the FNIIIa domain alone (Fc fusion)
60	BOC-Fc construct containing the FNIIIb domain alone (Fc fusion)
